Reference: patent publication US12297272B2, “IgG Fc variants for veterinary use” (Elanco US Inc., priority 2017, dated 2025)

Assays:
[1] = cited from earlier work
[2] = Differential scanning fluorimetry, stability at various pH; assay type: physicochemical; settings: n = 3, 10 μg construct
Description: Furthermore, differential scanning fluorimetry was used to assess the stability of the contiguous polypeptides at various pH, as reflected by mean melting point temperature (n=3) (Table 9, below). The increased stability of the variant feline IgG2 hinge is most evident at pH 6.

GLP1R = biological target: T1, GLP1R (Homo sapiens, UniProt P43220); test: Long-term storage stability, CHOK-1-GL1R cells with cAMP-Glo Max Assay; assay type: cell-based; settings: stored in PBS, pH7.2, 1.3 mg/mL, 2-8° C. for one year
T1 construct: host or cells: CHO-K1 (hamster ovarian cell line), CHOK-1-GL1R
Description: GLP1-G8_I_VARfeIgG2 (SEQ ID NO: 26) was stored in PBS, pH7.2 at a concentration of 1.3 mg/mL, placed in 1.5 mL Eppendorf tube, and stored at 2-8° C. for one year (Lot 2-29-2016). GLP1-G8_I_VARfeIgG2 (SEQ ID NO: 26) was also stored in PBS, pH7.2 at a concentration of 10 mg/mL, placed in 1.5 mL Eppendorf tube, and stored at 2-8° C. for one day (Lot 2-2-2017).
CHOK-1-GL1R cells were plated in a 96-well plate (Corning, Cat #3610) at a density of 20,000 cells per well in F-12K Medium (ATCC, Cat #ATCC® 30-2004) supplemented with 10% Fetal Bovine Serum, heat inactivated (Sigma, Cat #2868) and incubated at 37° C., 5% CO2 for 24 hours. […] (Sigma Aldrich, Cat. #B8279) to a final concentration 100 μL.
The cells were incubated at room temperature for 30 minutes. In this process, upon GLP1 binding to the Gs-coupled GLP1R receptor, Gs stimulates adenylate cyclase to generate cAMP. […]
Mono-oxygenation of luciferin was catalyzed by luciferase in the presence of Mg^2+ and ATP that presented in the cell lysate, resulting in a luminescent signal proportional to the amount of ATP in the cells. At the end of 10 min incubation, the plate was read on a Synergy HT microplate reader (Biotek, Winooski, VT). Luminescence is proportional to ATP levels but inversely proportional to cAMP levels. Thus, as cAMP concentration increases, luminescence decreases.

[3] = assay type: in vitro ADME, feline; settings: pH 7.2
Description: (§1) GLP1-G8_I_VARfeIgG2 (SEQ ID NO: 26) was stored in PBS, pH7.2 with feline serum at 37° C. for 24 hours to test in vitro serum stability.

[4] = assay type: in vitro ADME, feline
Description: (lane 1), in PBS for 24 hours at 37° C. (lane 2), in PBS for 24 hours at 4° C. (lane 9). A mouse anti-GLP1 antibody was used.
as §1

[5] = in vivo, sc, 2 mg/kg
Description: (§2) The plate was sealed and incubated overnight at 4° C. […] After removing the blocking buffer, serial dilutions of reference standard and samples in blocking buffer were added (100 μl/well) and the plate was incubated for 2 hours at room temperature. […] TMB substrate (ScyTek, Catalog No. TM1999) was added (100 μl/well) and allowed to incubate at room temperature for 1 minute. The reaction was stopped by the addition of 2M H2SO4 (50 μl/well).

[6] = in vivo, sc, 2 mg/kg; remark: listed apart in the source
[7] = In vivo pharmacokinetics in cats, serum concentration by quantitative ELISA; settings: single dose 2 mg/kg subcutaneous, 5 cats
Description: as §2

[8] = In vivo pharmacokinetics in cats, serum concentration by cell-based activity assay; settings: single dose 2 mg/kg subcutaneous, 5 cats, 0 to 168 hours

T1 sequence (P43220 24-463): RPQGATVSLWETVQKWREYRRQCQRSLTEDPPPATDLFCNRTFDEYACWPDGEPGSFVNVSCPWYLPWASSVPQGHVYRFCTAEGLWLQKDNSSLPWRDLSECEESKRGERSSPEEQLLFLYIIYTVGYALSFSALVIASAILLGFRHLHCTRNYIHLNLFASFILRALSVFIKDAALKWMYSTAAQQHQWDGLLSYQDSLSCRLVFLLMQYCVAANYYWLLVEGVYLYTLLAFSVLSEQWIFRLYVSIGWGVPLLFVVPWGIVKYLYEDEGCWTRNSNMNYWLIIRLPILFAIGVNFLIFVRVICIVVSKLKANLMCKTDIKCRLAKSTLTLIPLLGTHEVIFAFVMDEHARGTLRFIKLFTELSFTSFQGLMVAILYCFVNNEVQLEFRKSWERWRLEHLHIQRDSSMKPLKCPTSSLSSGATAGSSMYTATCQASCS

Native GLP1: Glucagon-like peptide-1 (GLP1), a potent antihyperglycemic hormone
in vivo half-life [1]: approximately 2 minutes

B1: GLP1-G8_I_VARfeIgG2: Formula I GLP1-G8 contiguous polypeptide comprising variant feline IgG2 Fc of SEQ ID NO: 17 (Gly to Cys at position 14) (protein)
chain: HGEGTFTSDVSSYLEGQAAKEFIAWLVKGGGGSGGGGSGGGGSGGGGSPKTASTIESKTGECPKCPVPEIPGAPSVFIFPPKPKDTLSISRTPEVTCLVVDLGPDDSNVQITWFVDNTEMHTAKTRPREEQFNSTYRVVSVLPILHQDWLKGKEFKCKVNSKSLPSAMERTISKAKGQPHEPQVYVLPPTQEELSENKVSVTCLIKGFHPPDIAVEWEITGQPEPENNYQTTPPQLDSDGTYFLYSRLSVDRSHWQRGNTYTCSVSHEALHSHHTQKSLTQSPGK
modifications: Synthetic GLP1-G8_I_VARfeIgG2
Mean Melting Point Temperature (Tm) ([2]; pH 5): 53.1 °C | Mean Melting Point Temperature (Tm) ([2]; pH 6): 59.7 °C | Mean Melting Point Temperature (Tm) ([2]; pH 7): 59.9 °C | Mean Melting Point Temperature (Tm) ([2]; pH 8): 58.2 °C | cellular activity after storage (GLP1R): maintained cellular activity | activity after serum incubation [3]: activity was maintained | degradation by Western blot [4]: no visible degradations were observed | mean serum half-life (t1/2) [5]: 39 h | mean t1/2 [6]: 36 h | average Cmax [7]: 12000 ng/mL | average Tmax [7]: 22 h | mean area under the curve (AUC) [7]: about 950 m(h)/mL | mean AUC [8]: about 840 μg(h)/mL
